The values that follow come from PMC4909252, “High-resolution NMR structures of the domains of Saccharomyces cerevisiae Tho1”.

Data set [1] addresses T1, Tho1 N-terminal SAP domain (Saccharomyces cerevisiae, UniProt P40040 1-50).
T1 chain: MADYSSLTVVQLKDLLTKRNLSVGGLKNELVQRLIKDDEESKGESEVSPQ
Kind of data set: NMR (15N HSQC); 200 uM protein, 200 uM DNA; 15N HSQC, 200 uM protein and oligo; typical NMR buffer 20 mM potassium phosphate pH 6.5, 100 mM NaCl, 5 mM beta-mercaptoethanol, 10% D2O, 25 C. Conditions: protein: recombinant; tags: His6-lipoyl fusion removed by TEV; 15N-labelled; blunt, self-complementary, 2 copies of one strand.

For data set [2], the target named is T1, Tho1 N-terminal SAP domain. As to the kind of experiment: NMR (15N HSQC); 200 uM protein; 15N HSQC, 200 uM protein and oligo; typical NMR buffer 20 mM potassium phosphate pH 6.5, 100 mM NaCl, 5 mM beta-mercaptoethanol, 10% D2O, 25 C. Conditions: protein: recombinant; tags: His6-lipoyl fusion removed by TEV; 15N-labelled; called dsRNA.

B1: random dsDNA 12-mer (dsDNA)
DNA 1: TCCTGATCAGGA
DNA 2: TCCTGATCAGGA
Regarding B1, in data set [1], the binding result is “binds”.

GGACAGCUGUCCCUUCGGGGACAGCUGUCC (structured_RNA) [30-mer dsRNA]: the binding result in data set [2] is on record as “no binding”.
